Biological target: β1 integrins on HEp-2 cells

**Q.** RGDS peptide (Gibco) was tested. Which ID30 did it give?
**A.** The ID30 was 170 µM.

Reference: patent US20040019188A1, “Targeting through integrins” (priority 2000, published 2004)
